Patent US8980255B2, “Treatment of autoimmune disease by modulating annexin-1 (lipocortin 1)” (Queen Mary & Westfield College, priority 2008, dated 2015)
Where no end group is shown, it is not given here.

B1: hrAnx-A1: Endotoxin-free human recombinant Anx-A1 (Annexin-1, 37-kDa protein) (protein, UniProt P04083 1-346, looked up)
chain: MAMVSEFLKQAWFIENEEQEYVQTVKSSKGGPGSAVSPYPTFNPSSDVAALHKAIMVKGVDEATIIDILTKRNNAQRQQIKAAYLQETGKPLDETLKKALTGHLEEVVLALLKTPAQFDADELRAAMKGLGTDEDTLIEILASRTNKEIRDINRVYREELKRDLAKDITSDTSGDFRNALLSLAKGDRSEDFGVNEDLADSDARALYEAGERRKGTDVNVFNTILTTRSYPQLRRVFQKYTKYSKHDMNKVLDLELKGDIEKCLTAIVKCATSKPAFFAEKLHQAMKGVGTRHKALIRIMVSRSEIDMNDIKAFYQKMYGISLCQAILDETKGDYEKILVALCGGN
modifications: full-length

Tests used:
[1] = test system: murine naïve lymph node T cells; test: IL-2 production from anti-CD3/CD28 stimulated T cells; assay type: cell-based
Method: The effects of an N-terminal peptide of hrAnx-A1 (peptide Ac 2-26) and of full length hrAnx-A1 on T cell activation were investigated. IL-2 production from murine naïve lymph node T cells was stimulated with 0.6, 1.25 or 2.5 μg/ml of anti-CD3/CD28 in the presence or absence of full length hrAnx-A1 (300 nM) or the Anx-A1 derived N-terminal peptide Ac.2-26 (100 μM) for 24 hrs.

[2] = test system: murine naïve lymph node T cells; test: T cell proliferation (3H-thymidine incorporation), anti-CD3/CD28 stimulation; assay type: cell-based
Method: Primary murine T cells were prepared from lymph nodes by negative selection. Briefly, axillary, inguinal, and mesenteric lymph nodes were teased apart to make a single cell suspension, then washed and layered over Ficoll. The buffy coat was washed 2 times and then incubated with the antibody mix and the magnetic beads following the manufacturer's instructions (mouse T-cell negative isolation kit; Dynal, Bromborough, United Kingdom). In some experiments, cells were further purified to obtain naive CD62L^+ CD4^+ T cells by using the Miltenyi Biotec CD62L^+ CD4^+ T-cell isolation kit. Th0 conditions were created by T cells for 4 days in 6-well plates precoated with anti-CD3 (5 μg/mL) and anti-CD28 (5 μg/mL) in complete RPMI medium (10% fetal calf serum [FCS], 2 mM L-glutamine, and 100 units mL^−1 gentamycin) containing murine IL-2 (20 U/mL). […]
Purified lymph node T cells (10^5 cells/mL) were incubated with medium alone or with different concentrations of hrAnx-A1 for 2 hours at 37° C. in Eppendorf tubes. […] After 18 hours, cultures were pulsed for 8 hours with 1 μCi (3.7×10^4 Bg) [^3H]-thymidine (Amersham Pharmacia Biotech, Piscataway, N.J.) and incorporated radioactivity was measured by automated scintillation counter (Packard Instruments, Pangbourne, United Kingdom). […]

[3] = test system: Activator Protein-1 (AP-1); test: Electrophoretic Mobility Shift Assay for AP-1 activation in T cells; assay type: cell-based; settings: T cells stimulated with anti-CD3/CD28 1.25 μg/ml in presence of hrAnx-A1; FIG. 5A
Method: (§1) Nuclear extracts were harvested from 3×10^6 to 5×10^6 cells according to previously described protocols. Nuclear extracts (3 μg to 5 μg) were incubated with 1 μg (for NFAT) or 2 μg (for NF-κB and AP-1) of poly (dI:dC) in 20 μL binding buffer with ^32P end-labeled, double-stranded oligonucleotide probes (5×10^5 cpm), and fractionated on a 6% polyacrylamide gel (29:1 cross-linking ratio) in 0.5% TBE for 2.5 hours at 150 V. The NF-κB and AP-1 binding buffer (10×) contained 100 mM Tris-HCl, (pH 7.5), 500 mM NaCl, 10 mM EDTA, 50% glycerol, 10 mg/mL albumin, 30 mM GTP, 10 mM DTT. The NFAT binding buffer (10×) contained 100 mM Hepes (pH 7.9), 500 mM KCl, 1 mM EDTA, 1 mM EGTA, 50% glycerol, 5 mg/mL albumin, 1% Nonidet P-40, 10 mM DTT. The NF-κB and AP-1 double-stranded oligonucleotide probes were from Promega and the NFAT was from Santa Cruz Biotechnology (Santa Cruz, Calif.).
(§2) Investigations were carried out into how exogenous and endogenous Anx-A1 modulates T cell activation. The three major transcriptional activators of T cells, namely Activator Protein-1 (AP-1), Nuclear Factor-κB (NF-κB) and Nuclear Factor of Activated T cells (NFAT) were analysed in cells stimulated in presence of hrAnx-A1. […]

DBA mice = test: collagen-induced arthritis (CIA) model; assay type: in vivo; settings: 1 μg s.c. twice a day for 12 days after immunization with collagen, compared to PBS vehicle; FIGS. 8A, 8B
Method: Mice were injected with hrAnx-A1 daily for 12 days after immunization with collagen (time during which naïve cells differentiate in Th effector cells) and thereafter the progression of the disease upon antigen challenge was analyzed. […] Synchronization of disease onset was obtained by boosting with collagen on day 21, and clinical signs were evident from day 22 (day 1 of the onset of the diseases). Values are mean±S.E. of n=6-8 mice. Groups were compared using the Maim-Whitney test. *P<0.01

[4] = test system: Nuclear Factor of Activated T cells (NFAT); test: Electrophoretic Mobility Shift Assay for NFAT activation in T cells; assay type: cell-based; settings: T cells stimulated with anti-CD3/CD28 1.25 μg/ml in presence of hrAnx-A1; FIG. 5A
Method: as §1, §2

naïve lymph node T cells = test: Th1/Th2 differentiation in vitro, cytokine production on anti-CD3 restimulation; assay type: cell-based, mice; settings: Th1 or Th2 conditions, hrAnx-A1 600 nM, anti-CD3 5.0 μg/ml re-stimulation 8 h; FIG. 7A
Method: Primary murine T cells were prepared from lymph nodes by negative selection. Briefly, axillary, inguinal, and mesenteric lymph nodes were teased apart to make a single cell suspension, then washed and layered over Ficoll. The buffy coat was washed 2 times and then incubated with the antibody mix and the magnetic beads following the manufacturer's instructions (mouse T-cell negative isolation kit; Dynal, Bromborough, United Kingdom). In some experiments, cells were further purified to obtain naive CD62L^+ CD4^+ T cells by using the Miltenyi Biotec CD62L^+ CD4^+ T-cell isolation kit. Th0 conditions were created by T cells for 4 days in 6-well plates precoated with anti-CD3 (5 μg/mL) and anti-CD28 (5 μg/mL) in complete RPMI medium (10% fetal calf serum [FCS], 2 mM L-glutamine, and 100 units mL^−1 gentamycin) containing murine IL-2 (20 U/mL). Th1 conditions were created with murine IL-12 (3.4 ng/mL; eBioscience), IL-2 (20 U/mL; eBioscience), and anti-IL4 (clone 11B11; 2 μg/mL). Th2 conditions were created with IL-4 (3000 U/mL; Peprotech, Rocky Hill, N.J.), IL-2 (20 U/mL), and anti-IFN-γ (clone XMG1.2; 2 μg/mL). Jurkat cells were obtained from ATCC (Manassas, Va.) and were cultured in complete RPMI medium.
For Th1/Th2 cytokine production analysis, Th0/Th1/Th2 cells (10^6/mL) obtained after 4-day differentiation in skewing conditions and 1 day of resting in complete RPMI medium, were stimulated with plate-bound anti-CD3 (5 μg/mL) for 8 h in 24-well plates. Culture supernatants were collected and analyzed for IFN-γ, IL-2, IL-4 and IL-10 content by using Th1/Th2 panel ELISA kit (eBioscience). The IL-13 ELISA kit was also purchased from eBioscience.
Naïve lymph node T cells were differentiated in vitro in Th1 (black bars) or Th2 (white bars) conditions in presence or absence of hrAnx-A1 (600 nM) and then restimulated with plate-bound anti-CD3 (5.0 μg/ml) for 8 h to measure Th1 or Th2 cytokine production. Values are mean±S.E. of n=4-5 mice. **P<0.01

[5] = test system: murine naïve lymph node T cells; test: CD25 and CD69 cell surface expression by FACS; assay type: cell-based; settings: hrAnx-A1 150, 300, 600 nM; anti-CD3/CD28 1.25-5.0 μg/ml, 12 hrs; FIGS. 3C, 3D
Method: Purified lymph node T cells were pretreated with human recombinant Anx-A1 for 2 hours at 37° C. in Eppendorf tubes and then stimulated with plate-bound anti-CD3 and anti-CD28 as indicated in the figures. After 16 hours, the cells were stained with PE-conjugated anti-CD69 (clone H1.2F3) and FITC-conjugated anti-CD25 (clone PC61.5) diluted in FACS buffer (PBS containing 1% FCS and 0.02% […]). Intact cells were gated by using forward and side scatter and were analyzed with the CellQuest program (Becton Dickinson, Franklin Lakes, N.J.) on a FACScan flow cytometer. […]
Murine naïve lymph node T cells were stimulated with anti-CD3/CD28 at a concentration of 1.25 μg/ml (left column), 2.5 μg/ml (middle column) and 5.0 μg/ml (right column), in the absence of (upper panels) or in the presence of (lower panels) hrAnx-A1 (600 nM) for 12 hrs and then analyzed for CD25 and CD69 expression by FACS.
In FIG. 3D, murine naïve lymph node T cells were stimulated with the indicated concentration of anti-CD3/CD28 in the presence of 150 (X), 300 ( ? ) and 600 (◯) nM of hrAnx-A1 for 12 hours and then analysed for CD25 (left graph) and CD69 (right graph) expression by FACS.

[6] = test system: Nuclear Factor-κB (NF-κB); test: Electrophoretic Mobility Shift Assay for NF-κB activation in T cells; assay type: cell-based; settings: T cells stimulated with anti-CD3/CD28 1.25 μg/ml in presence of hrAnx-A1; FIG. 5A
Method: as §1, §2

| Molecule | IL-2 production ([1]; Ac.2-26 100 μM, anti-CD3/CD28 0.6, 1.25 or 2.5 μg/ml, 24 hrs, FIG. 9) | T cell proliferation ([2]; Ac.2-26, data not shown) | activation of AP-1 [3] | signs and symptoms of arthritis (paw volume, clinical score) (DBA mice) | activation of NFAT [4] | IL-2 production ([1]; anti-CD3/CD28 1.25 μg/ml, different concentrations of hrAnx-A1, 24 hrs, FIG. 3B) | IFNγ production (naïve lymph node T cells) | IL2 production (naïve lymph node T cells) | IL4 release (naïve lymph node T cells) | IL 10 release (naïve lymph node T cells) | cell proliferation ([2]; pre-treatment with hrAnx-A1, anti-CD3/CD28 5.0, 2.5 and 1.25 μg/ml, 24 hrs, FIG. 3A) | cell surface expression of CD25 [5] | cell surface expression of CD69 [5] | activation of NF-κB [6] |
| --- | --- | --- | --- | --- | --- | --- | --- | --- | --- | --- | --- | --- | --- | --- |
| CH3CO-AMVSEFLKQA WFIENEEQEYVQTVK (Ac-AMVSEFLKQAWFIENEEQEYVQTVK; listed as Homo sapiens) [Ac.2-26, reference compound] | increased | increased | – | – | – | – | – | – | – | – | – | – | – | – |
| B1 | – | – | increased activation | exacerbated | increased activation | augmented | increased | increased | decrease | decrease | augmented | augmented | augmented | increased activation |
